Like-named read-outs stand apart in the source and are kept apart here.

This is an account of results in patent US12018066 (TRIAD NATIONAL SECURITY, dated 2024).

The target in experiment [1] is T1, SARS-CoV-2 spike protein receptor binding domain (RBD2) (SARS-CoV-2, UniProt P0DTC2 319-537).
Experiment [2] has as its target T1, SARS-CoV-2 spike protein receptor …. Put plainly: flow cytometry, yeast-displayed scFv. For orientation: A flow cytometer gives signals particle by particle.
Experiment [3] deals with SARS-CoV spike protein receptor binding domain (RBD1) (SARS-CoV, UniProt P59594 306-527). As to the kind of experiment: flow cytometry (yeast scFv) / minibody ELISA, FIGS. 7A-C.
The target in experiment [4] is T1, SARS-CoV-2 spike protein receptor …. As to the kind of experiment: flow cytometry, yeast-displayed scFv, titration of biotinylated antigen.
For experiment [5] the target is unchanged. Put plainly: SPR. For orientation: SPR reads the build-up and loss of mass on a sensor chip optically.
The target is the same in experiment [6]. As to the kind of experiment: SPR, minibodies.
Experiment [7] shares this target. Put plainly: SPR, immobilized antibody, RBD injected, 1:1 fit.

B1: E08 scFv (scFv)
scFv: SYVLTQPPSVSVAPGKTARITCGGNNIGWKSVHWYQQKPGQAPVLVVYDDSDRPSGIPERFSGSNSGNTATLTISRVEAGDEADYYCQVWDSSSDLVVFGGGTKLTVLSGGSTITSYNVYYTKLSSSGTQVQLVQSGAEVKKPGSSVKVSCKASGGTFSSYAISWVRQAPGQGLEWMGGIIPIFGTANYAQKFQGRVTITADESTSTAYMELSSLRSEDTAVYYCARASGRWLQFWHYYGMDVWGQGTTVTVSS
Consider B1, for which the Kd in experiment [1], in experiment [2] and in experiment [4] was 13.9 nM in each case. Besides, the binding result in experiment [3] was “binds”.

B2: E08 minibody (scFv-Fc) (Fc fusion)
chain: SYVLTQPPSVSVAPGKTARITCGGNNIGWKSVHWYQQKPGQAPVLVVYDDSDRPSGIPERFSGSNSGNTATLTISRVEAGDEADYYCQVWDSSSDLVVFGGGTKLTVLSGGSTITSYNVYYTKLSSSGTQVQLVQSGAEVKKPGSSVKVSCKASGGTFSSYAISWVRQAPGQGLEWMGGIIPIFGTANYAQKFQGRVTITADESTSTAYMELSSLRSEDTAVYYCARASGRWLQFWHYYGMDVWGQGTTVTVSS
In the case of B2, the Kd stood at 3.6 nM in experiment [5], 4 nM in experiment [6] and 3.6 nM in experiment [7].

B3: R26 minibody (scFv-Fc) (Fc fusion)
chain: SYELTQPPSVSVAPGQTATITCGGKNIESKSVHWYQQKPGQAPVLVVSDDTDRASGIPERFSGSNSGGAATLTISRVEAGDEADYYCQVWDSPSDHYVFGPGTKLTVLSGGSTITSYNVYYTKLSSSGTQVQLVESGGGVVQPGRSLRLSCAASGFTFSSYAMHWVRQAPGKGLEWVAVISYDGSNKYYADSVKGRFTISRDKAKNTLYLQMNSLRGEDTAVYYCARELSYYDSSGYLRGDWYFDLWGRGTLVTVSS
As for B3, the results for the dissociation constant Kd in experiment [6] and in experiment [7] were 900 nM and 888 nM, respectively.

What is called Kd is the constant that tells how readily two partners part at equilibrium. A lower Kd goes with tighter binding.
